From patent publication US9176064B2, “Bisubstrate fluorescent probes for protein kinase CK2” (University of Tartu, priority 2012, dated 2015) come the findings set out here.

Where a SMILES comes first, the peptide text is derived from it. [ ]: non-standard residue; d: D form. The star is where a group is joined. X1 = O=C(CCCCCCCn1cnc2c(Br)c(Br)c(Br)c(Br)c21)*

Targets include IRR (Homo sapiens, UniProt P14616); IR (Homo sapiens, UniProt P06213); MST4 (Homo sapiens, UniProt Q9P289); ERK2 (Homo sapiens, UniProt P28482); IRAK1 (Homo sapiens, UniProt P51617); TTBK1 (Homo sapiens, UniProt Q5TCY1).
Holding throughout (experiment): Kinase panel residual activity
Assay type in all cases: biochemical
Common to all, as to conditions: compound at 1 micromolar

A further series deals with T1, TAO1 (Homo sapiens, UniProt Q7L7X3).
T1 sequence (Q7L7X3 1-1001): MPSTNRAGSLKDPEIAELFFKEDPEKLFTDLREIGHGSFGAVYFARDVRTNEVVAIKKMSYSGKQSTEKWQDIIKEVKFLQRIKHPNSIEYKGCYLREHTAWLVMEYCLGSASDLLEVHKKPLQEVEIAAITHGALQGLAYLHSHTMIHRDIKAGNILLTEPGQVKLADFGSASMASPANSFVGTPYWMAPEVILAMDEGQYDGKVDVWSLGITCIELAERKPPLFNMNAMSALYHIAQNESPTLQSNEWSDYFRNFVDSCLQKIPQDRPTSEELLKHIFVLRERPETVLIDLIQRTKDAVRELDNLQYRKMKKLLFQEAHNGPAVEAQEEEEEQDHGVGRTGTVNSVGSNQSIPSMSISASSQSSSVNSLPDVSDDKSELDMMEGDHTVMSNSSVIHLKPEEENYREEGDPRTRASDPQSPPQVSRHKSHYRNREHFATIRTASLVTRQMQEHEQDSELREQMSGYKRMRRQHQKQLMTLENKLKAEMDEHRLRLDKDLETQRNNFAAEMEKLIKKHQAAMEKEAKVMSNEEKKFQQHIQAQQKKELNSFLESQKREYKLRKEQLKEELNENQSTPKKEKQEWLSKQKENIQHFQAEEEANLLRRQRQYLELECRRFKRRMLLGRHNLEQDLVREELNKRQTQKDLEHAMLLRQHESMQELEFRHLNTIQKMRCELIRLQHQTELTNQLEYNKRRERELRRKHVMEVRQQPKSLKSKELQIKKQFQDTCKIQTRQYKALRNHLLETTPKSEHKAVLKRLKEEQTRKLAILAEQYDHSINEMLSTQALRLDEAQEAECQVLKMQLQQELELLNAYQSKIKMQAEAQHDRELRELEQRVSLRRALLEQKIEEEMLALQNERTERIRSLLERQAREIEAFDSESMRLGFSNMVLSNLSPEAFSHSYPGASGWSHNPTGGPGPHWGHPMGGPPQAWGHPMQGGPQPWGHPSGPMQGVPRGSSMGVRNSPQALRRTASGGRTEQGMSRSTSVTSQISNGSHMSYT

A further series addresses T2, TTK (Homo sapiens, UniProt P33981).
T2 sequence (P33981 1-857): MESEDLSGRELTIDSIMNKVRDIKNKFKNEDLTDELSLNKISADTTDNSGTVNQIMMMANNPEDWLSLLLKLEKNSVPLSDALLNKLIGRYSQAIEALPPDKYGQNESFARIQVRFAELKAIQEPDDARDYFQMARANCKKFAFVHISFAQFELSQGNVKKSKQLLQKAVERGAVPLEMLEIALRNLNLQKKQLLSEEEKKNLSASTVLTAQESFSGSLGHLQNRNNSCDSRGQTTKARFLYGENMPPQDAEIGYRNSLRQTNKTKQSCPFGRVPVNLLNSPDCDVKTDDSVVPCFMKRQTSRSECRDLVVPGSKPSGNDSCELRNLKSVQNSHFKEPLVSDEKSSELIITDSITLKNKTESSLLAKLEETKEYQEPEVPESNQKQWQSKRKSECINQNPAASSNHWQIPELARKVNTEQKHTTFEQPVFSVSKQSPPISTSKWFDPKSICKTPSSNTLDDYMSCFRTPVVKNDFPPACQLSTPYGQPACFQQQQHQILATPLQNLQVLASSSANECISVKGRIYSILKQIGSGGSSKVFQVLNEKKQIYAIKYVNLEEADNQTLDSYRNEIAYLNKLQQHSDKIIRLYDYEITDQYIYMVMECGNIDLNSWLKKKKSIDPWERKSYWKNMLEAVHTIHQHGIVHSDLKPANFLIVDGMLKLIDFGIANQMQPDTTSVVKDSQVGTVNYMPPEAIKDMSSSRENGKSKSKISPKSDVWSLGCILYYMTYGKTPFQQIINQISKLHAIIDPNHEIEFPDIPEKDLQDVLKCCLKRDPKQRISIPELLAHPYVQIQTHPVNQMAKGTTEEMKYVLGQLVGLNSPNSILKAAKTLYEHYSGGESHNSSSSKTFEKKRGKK

The target of the next series is T3, CHK1 (Homo sapiens, UniProt O14757).
T3 sequence (O14757 1-476): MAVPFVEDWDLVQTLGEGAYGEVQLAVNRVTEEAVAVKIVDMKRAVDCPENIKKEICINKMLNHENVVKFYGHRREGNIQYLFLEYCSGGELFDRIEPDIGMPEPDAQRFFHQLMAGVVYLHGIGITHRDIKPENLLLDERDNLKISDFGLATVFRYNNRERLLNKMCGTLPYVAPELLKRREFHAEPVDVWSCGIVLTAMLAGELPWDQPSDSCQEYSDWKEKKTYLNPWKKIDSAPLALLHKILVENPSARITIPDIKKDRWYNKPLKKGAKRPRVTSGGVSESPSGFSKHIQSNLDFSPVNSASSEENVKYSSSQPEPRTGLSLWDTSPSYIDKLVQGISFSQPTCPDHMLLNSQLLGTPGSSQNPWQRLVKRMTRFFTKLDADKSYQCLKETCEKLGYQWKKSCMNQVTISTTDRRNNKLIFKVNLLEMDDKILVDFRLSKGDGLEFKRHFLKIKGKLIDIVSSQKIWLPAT

Chain of IR (P06213 28-1382): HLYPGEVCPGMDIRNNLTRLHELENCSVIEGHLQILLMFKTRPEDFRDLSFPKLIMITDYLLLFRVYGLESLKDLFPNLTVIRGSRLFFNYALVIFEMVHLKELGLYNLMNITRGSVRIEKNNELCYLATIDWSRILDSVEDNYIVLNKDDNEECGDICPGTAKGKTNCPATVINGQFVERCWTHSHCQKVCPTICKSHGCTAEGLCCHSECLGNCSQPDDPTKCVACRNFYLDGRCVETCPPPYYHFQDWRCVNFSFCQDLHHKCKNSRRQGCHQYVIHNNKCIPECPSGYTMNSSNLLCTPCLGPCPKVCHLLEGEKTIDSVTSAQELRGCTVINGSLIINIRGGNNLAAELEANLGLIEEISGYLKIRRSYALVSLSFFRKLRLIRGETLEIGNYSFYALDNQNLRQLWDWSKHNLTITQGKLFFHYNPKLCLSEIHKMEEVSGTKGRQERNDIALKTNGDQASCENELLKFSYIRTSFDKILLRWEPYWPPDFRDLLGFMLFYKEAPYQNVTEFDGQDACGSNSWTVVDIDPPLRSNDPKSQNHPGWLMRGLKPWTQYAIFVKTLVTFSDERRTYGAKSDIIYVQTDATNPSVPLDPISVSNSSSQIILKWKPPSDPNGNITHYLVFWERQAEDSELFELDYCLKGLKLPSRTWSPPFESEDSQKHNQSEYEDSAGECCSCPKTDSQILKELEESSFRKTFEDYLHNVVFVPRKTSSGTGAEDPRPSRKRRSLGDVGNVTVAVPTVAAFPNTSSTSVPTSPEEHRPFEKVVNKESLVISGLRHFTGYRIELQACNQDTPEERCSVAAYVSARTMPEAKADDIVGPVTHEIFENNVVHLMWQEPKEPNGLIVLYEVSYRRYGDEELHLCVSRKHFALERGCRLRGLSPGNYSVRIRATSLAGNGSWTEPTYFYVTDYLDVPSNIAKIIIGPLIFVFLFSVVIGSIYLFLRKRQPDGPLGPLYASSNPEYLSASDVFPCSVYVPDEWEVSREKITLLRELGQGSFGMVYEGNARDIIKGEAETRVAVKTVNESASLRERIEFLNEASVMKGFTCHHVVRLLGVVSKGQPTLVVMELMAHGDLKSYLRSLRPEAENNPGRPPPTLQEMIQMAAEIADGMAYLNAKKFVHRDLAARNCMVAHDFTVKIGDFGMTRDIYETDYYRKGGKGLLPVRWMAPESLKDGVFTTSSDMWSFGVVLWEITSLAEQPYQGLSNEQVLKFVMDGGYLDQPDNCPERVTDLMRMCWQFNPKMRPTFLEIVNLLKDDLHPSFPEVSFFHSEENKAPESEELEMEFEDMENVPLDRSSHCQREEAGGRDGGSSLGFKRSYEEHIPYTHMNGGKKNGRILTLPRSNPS
Chain of MST4 (Q9P289 whole entry, species assumed): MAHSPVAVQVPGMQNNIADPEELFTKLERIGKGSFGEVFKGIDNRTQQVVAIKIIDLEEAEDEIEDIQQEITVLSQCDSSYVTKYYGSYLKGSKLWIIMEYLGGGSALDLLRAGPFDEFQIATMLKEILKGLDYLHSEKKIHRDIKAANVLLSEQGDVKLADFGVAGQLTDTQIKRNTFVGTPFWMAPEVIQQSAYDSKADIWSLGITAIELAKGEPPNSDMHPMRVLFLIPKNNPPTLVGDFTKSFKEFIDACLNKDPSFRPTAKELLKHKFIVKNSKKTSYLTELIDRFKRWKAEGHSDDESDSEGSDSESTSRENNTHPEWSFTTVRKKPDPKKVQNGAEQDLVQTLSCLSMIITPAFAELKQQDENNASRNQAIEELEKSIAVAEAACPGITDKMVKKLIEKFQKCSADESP
Chain of TTBK1 (Q5TCY1 whole entry, species assumed): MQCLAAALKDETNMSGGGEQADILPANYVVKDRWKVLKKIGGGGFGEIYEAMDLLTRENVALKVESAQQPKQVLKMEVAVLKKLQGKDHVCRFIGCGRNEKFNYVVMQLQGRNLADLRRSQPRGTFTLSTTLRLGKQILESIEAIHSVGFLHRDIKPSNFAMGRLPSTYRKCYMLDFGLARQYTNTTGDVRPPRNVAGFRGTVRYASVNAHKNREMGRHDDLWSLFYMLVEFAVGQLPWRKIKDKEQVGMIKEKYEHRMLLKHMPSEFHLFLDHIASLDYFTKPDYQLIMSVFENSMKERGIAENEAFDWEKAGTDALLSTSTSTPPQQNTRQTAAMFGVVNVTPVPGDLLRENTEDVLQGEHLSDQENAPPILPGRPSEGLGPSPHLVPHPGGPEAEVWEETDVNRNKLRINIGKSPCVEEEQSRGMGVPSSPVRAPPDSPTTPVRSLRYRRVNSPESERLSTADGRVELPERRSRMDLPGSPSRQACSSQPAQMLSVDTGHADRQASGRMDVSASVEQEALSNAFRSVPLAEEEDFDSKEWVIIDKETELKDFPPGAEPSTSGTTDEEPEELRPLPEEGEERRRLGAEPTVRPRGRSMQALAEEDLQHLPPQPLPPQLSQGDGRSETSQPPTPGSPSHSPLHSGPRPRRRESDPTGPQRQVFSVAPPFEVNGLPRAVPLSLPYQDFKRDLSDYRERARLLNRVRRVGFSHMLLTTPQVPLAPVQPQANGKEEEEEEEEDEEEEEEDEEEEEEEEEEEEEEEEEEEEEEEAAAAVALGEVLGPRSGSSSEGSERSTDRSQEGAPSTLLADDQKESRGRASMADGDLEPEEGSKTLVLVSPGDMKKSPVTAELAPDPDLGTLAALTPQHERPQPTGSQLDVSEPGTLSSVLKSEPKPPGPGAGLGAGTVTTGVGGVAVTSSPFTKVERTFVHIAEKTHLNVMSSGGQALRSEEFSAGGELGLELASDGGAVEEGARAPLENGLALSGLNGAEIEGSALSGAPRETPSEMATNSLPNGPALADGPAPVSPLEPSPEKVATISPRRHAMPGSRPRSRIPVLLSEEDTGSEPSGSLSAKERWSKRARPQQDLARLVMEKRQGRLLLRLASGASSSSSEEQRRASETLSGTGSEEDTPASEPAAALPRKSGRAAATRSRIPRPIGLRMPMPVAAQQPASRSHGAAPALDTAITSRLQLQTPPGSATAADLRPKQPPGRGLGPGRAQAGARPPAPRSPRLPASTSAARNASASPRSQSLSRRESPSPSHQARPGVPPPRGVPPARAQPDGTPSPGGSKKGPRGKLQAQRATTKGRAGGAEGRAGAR
Chain of IRAK1 (P51617 whole entry, species assumed): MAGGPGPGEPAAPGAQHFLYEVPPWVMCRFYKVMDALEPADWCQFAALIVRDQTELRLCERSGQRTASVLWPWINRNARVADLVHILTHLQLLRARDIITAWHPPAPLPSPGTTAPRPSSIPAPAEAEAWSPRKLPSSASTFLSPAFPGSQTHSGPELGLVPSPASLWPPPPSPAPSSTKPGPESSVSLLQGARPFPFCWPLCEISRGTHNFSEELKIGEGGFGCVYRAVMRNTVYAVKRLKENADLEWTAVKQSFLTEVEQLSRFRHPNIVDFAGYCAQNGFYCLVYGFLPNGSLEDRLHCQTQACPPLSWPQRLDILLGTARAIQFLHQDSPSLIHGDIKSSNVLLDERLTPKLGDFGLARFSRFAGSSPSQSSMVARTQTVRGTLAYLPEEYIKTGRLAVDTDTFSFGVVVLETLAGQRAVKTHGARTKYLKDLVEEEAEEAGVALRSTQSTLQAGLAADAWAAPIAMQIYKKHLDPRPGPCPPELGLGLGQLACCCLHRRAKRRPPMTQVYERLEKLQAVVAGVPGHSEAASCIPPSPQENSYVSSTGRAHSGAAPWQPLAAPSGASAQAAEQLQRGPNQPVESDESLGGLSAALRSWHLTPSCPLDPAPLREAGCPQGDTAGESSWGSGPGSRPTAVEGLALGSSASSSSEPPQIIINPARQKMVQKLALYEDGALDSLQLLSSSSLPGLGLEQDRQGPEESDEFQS
Chain of IRR (P14616 27-1297, species assumed): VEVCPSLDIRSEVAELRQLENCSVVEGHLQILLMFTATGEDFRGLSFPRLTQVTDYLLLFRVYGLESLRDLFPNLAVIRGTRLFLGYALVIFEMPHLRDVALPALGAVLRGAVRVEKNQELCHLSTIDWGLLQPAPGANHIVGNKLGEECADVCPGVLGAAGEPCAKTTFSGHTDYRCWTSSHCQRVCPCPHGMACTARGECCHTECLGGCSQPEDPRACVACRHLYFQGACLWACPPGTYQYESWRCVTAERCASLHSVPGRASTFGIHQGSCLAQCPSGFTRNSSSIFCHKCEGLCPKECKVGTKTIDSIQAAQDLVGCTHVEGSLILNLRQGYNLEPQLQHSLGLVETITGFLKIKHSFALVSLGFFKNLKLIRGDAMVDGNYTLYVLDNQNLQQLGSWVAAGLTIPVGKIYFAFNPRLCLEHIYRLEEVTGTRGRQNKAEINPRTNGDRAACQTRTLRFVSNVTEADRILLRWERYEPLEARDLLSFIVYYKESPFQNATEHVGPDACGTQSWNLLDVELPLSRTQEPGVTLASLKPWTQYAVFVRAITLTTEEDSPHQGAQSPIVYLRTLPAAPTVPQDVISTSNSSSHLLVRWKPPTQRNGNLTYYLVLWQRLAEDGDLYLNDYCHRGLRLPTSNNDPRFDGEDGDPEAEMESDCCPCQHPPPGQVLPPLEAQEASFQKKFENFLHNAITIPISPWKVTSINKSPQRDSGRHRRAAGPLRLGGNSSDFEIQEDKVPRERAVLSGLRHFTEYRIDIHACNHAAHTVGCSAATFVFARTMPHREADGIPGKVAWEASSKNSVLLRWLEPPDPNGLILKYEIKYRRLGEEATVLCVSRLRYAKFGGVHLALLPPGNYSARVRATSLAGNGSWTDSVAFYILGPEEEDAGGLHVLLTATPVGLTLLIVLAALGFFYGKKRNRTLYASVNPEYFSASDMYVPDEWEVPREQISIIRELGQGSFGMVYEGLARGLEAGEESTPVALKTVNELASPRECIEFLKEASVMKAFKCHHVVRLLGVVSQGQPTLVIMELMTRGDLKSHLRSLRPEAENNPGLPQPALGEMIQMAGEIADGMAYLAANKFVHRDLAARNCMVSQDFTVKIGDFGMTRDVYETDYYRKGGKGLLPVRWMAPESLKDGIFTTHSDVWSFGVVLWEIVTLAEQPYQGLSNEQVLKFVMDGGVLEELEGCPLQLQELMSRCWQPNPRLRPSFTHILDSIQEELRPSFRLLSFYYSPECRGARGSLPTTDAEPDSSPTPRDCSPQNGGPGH

For orientation: remaining activity means the signal under treatment as a percentage of the control signal. In the case of `NCCCC[C@H](NC(=O)[C@H](CC(=O)O)NC(=O)[C@H](CC(=O)O)NC(=O)[C@H](CC(=O)O)NC(=O)[C@H](CC(=O)O)NC(=O)[C@H](CC(=O)O)NC(=O)[C@@H](CC(=O)O)NC(=O)CCCCCCCn1cnc2c(Br)c(Br)c(Br)c(Br)c21)C(=O)O` [TBBI-OcA-(D-Asp)-(L-Asp)5-(L-Lys)-OH] (X1-[dD]DDDDDK-OH), the remaining activity at 1 µM in the series with IRR was found to be 55%; with TAO1, 84%; with IR it was 70%; with TTK, 52%; with MST4 it was 114%; with ERK2, 92%. Moreover, the remaining activity at 1 µM amounted to 89% in the series with IRAK1, 134% with CHK1 and 90% with TTBK1.
